Experimental data: the supplement of paper PMC10126150
± gives the standard deviation of the averaged measurements.

Tested on: ATP
Experiment: switch fluorescence ratio, 500 uM ATP over buffer (Cy3 cluster intensity, sum of 5 cycles each) (fold (ratio)); higher = stronger signal-on switching upon ATP binding; sequences stand for … in TCGTCGGCAGCGTCAGATGTGTATAAGAGACAGTTTTTTTTTTTTTTTTTTTTTTTTT…TC
Details: aptamer strand: ATP DNA aptamer (quencher-CACCTGGGGGAGTATTGCGGAGGAAGG + anchor), 100 nM annealed; ATP concentration: 500 uM
Summary of the method: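 After annealing to 100 nM quencher-labelled ATP aptamer, Cy3-labelled switching-strand clusters on a modified Illumina MiSeq flow-cell were imaged in selection buffer. A second image followed after 15 min with 500 uM ATP at 22 °C, and five such buffer/ATP cycles were done, each separated by NaOH stripping and re-annealing. The fluorescence ratio, averaged per switch-domain sequence, is summed target-cycle over summed buffer-cycle Cy3 intensity per cluster, with clusters outside 100-1000 RFU excluded.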
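Note: ATP exposure 15 min at 22 °C before imaging.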

**Q.** TATCGGGGTA was tested. Which switch fluorescence ratio did it give?
**A.** 1.002 ± 0.0047

**Q.** Which switch fluorescence ratio does the source give for TAAGTTAATA here?
**A.** 1.02 ± 0.016

**Q.** With CCAGTACTGA as the sequence, how does the switch fluorescence ratio read?
**A.** 1.021 ± 0.0094

**Q.** Which switch fluorescence ratio does the source give for GACTTATTTT here?
**A.** 0.9849 ± 0.0014

**Q.** Which switch fluorescence ratio does the source give for TGGGGTGCCA here?
**A.** 0.9795 ± 0.0071

**Q.** How did the switch fluorescence ratio turn out when CTCCAAGTGA was run?
**A.** 1.315 ± 0.0062

**Q.** For ACGTGTAAGC, which switch fluorescence ratio is on record?
**A.** 1.03 ± 0.035

**Q.** AATGTCCGTC was tested. Which switch fluorescence ratio did it give?
**A.** 1.04 ± 0.046

**Q.** Which switch fluorescence ratio does the source give for AGGTGTGTAG here?
**A.** 0.99 ± 0.032

**Q.** How did the switch fluorescence ratio turn out when CATTAAATTT was run?
**A.** 1.02 ± 0.011

**Q.** Which switch fluorescence ratio does the source give for TGATATTCGA here?
**A.** 0.997 ± 0.012

**Q.** For GGGGGCGCGT, which switch fluorescence ratio is on record?
**A.** 1.02 ± 0.038

**Q.** For TTGTTTAGGT, which switch fluorescence ratio is on record?
**A.** 1 ± 0.03

**Q.** With GTTTATATGT as the sequence, how does the switch fluorescence ratio read?
**A.** 1.01 ± 0.049

**Q.** For TTATGCTATG, which switch fluorescence ratio is on record?
**A.** 1.055 ± 0.0034

**Q.** For TCAGGGGAAC, which switch fluorescence ratio is on record?
**A.** 1.06 ± 0.07

**Q.** With TGCCTAACTT as the sequence, how does the switch fluorescence ratio read?
**A.** 1.019 ± 0.0066

**Q.** Which switch fluorescence ratio does the source give for CGAAAGGGTT here?
**A.** 0.9983 ± 0.0072

**Q.** Which switch fluorescence ratio does the source give for GGCAGAAAGT here?
**A.** 1.014 ± 0.0027

**Q.** CGCTAAAGCC was tested. Which switch fluorescence ratio did it give?
**A.** 1.156 ± 0.003

**Q.** For GGTAGTATTT, which switch fluorescence ratio is on record?
**A.** 0.996 ± 0.028

**Q.** CGTATAAAAA was tested. Which switch fluorescence ratio did it give?
**A.** 0.971 ± 0.068

**Q.** With ACAGGTTGCG as the sequence, how does the switch fluorescence ratio read?
**A.** 0.9971 ± 0.0082

**Q.** With GGCGCATGGA as the sequence, how does the switch fluorescence ratio read?
**A.** 0.991 ± 0.023

**Q.** For TATTCTGCTA, which switch fluorescence ratio is on record?
**A.** 1.02 ± 0.024

**Q.** Which switch fluorescence ratio does the source give for AGGCTGCGTT here?
**A.** 1.02 ± 0.038

**Q.** With GACGGGGAGG as the sequence, how does the switch fluorescence ratio read?
**A.** 0.9995 ± 0.0092

**Q.** For TTTTGCGCTG, which switch fluorescence ratio is on record?
**A.** 0.94 ± 0.019

**Q.** For AGGAGACAAG, which switch fluorescence ratio is on record?
**A.** 0.948 ± 0.053

**Q.** How did the switch fluorescence ratio turn out when GGAGGAGAAT was run?
**A.** 1 ± 0.014

**Q.** AAAGTAGGTA was tested. Which switch fluorescence ratio did it give?
**A.** 0.976 ± 0.011

**Q.** TGCGATTATG was tested. Which switch fluorescence ratio did it give?
**A.** 1.02 ± 0.041

**Q.** With GCAAACGCAG as the sequence, how does the switch fluorescence ratio read?
**A.** 1.05 ± 0.032

**Q.** How did the switch fluorescence ratio turn out when ATCTGTGGA was run?
**A.** 1.015 ± 0.0024

**Q.** For CGCCAGCAGA, which switch fluorescence ratio is on record?
**A.** 1.33 ± 0.14

**Q.** Which switch fluorescence ratio does the source give for TCAGTGAAAC here?
**A.** 0.988 ± 0.021

**Q.** How did the switch fluorescence ratio turn out when GACACTTGGA was run?
**A.** 1.03 ± 0.014

**Q.** Which switch fluorescence ratio does the source give for TTTAGTTATT here?
**A.** 0.998 ± 0.017

**Q.** How did the switch fluorescence ratio turn out when AGGCCCGGAG was run?
**A.** 1.05 ± 0.045

**Q.** For AAACGAGGTC, which switch fluorescence ratio is on record?
**A.** 1.01 ± 0.032

**Q.** Which switch fluorescence ratio does the source give for TATAAAGGG here?
**A.** 0.956 ± 0.022

**Q.** Which switch fluorescence ratio does the source give for ACTGTTATAT here?
**A.** 1.044 ± 0.0053

**Q.** With TTGGGGGGGC as the sequence, how does the switch fluorescence ratio read?
**A.** 0.997 ± 0.039

**Q.** How did the switch fluorescence ratio turn out when ACCGCTCGAA was run?
**A.** 1.15 ± 0.056

**Q.** With TTGACGAGTA as the sequence, how does the switch fluorescence ratio read?
**A.** 1.1 ± 0.13

**Q.** Which switch fluorescence ratio does the source give for TTATGAAAGC here?
**A.** 1.02 ± 0.042

**Q.** How did the switch fluorescence ratio turn out when CACGGGGTAC was run?
**A.** 1.34 ± 0.016

**Q.** How did the switch fluorescence ratio turn out when GAGTGCGGGA was run?
**A.** 1.02 ± 0.044

**Q.** GACTTGAGTT was tested. Which switch fluorescence ratio did it give?
**A.** 0.9971 ± 0.0091

**Q.** Which switch fluorescence ratio does the source give for CACCCGGCGC here?
**A.** 1.17 ± 0.13

**Q.** With ATCATACACT as the sequence, how does the switch fluorescence ratio read?
**A.** 1.06 ± 0.018

**Q.** Which switch fluorescence ratio does the source give for AAATTAAATC here?
**A.** 0.993 ± 0.043

**Q.** How did the switch fluorescence ratio turn out when CATTGGAGTC was run?
**A.** 0.998 ± 0.043

**Q.** Which switch fluorescence ratio does the source give for TTTATAGAGT here?
**A.** 1.03 ± 0.029

**Q.** For TTATTGGGGT, which switch fluorescence ratio is on record?
**A.** 1.01 ± 0.013

**Q.** For CGAAGCTAGG, which switch fluorescence ratio is on record?
**A.** 2.16 ± 0.21

**Q.** Which switch fluorescence ratio does the source give for GCTTGCACTA here?
**A.** 0.998 ± 0.015

**Q.** TTCGTATATC was tested. Which switch fluorescence ratio did it give?
**A.** 1.7 ± 0.93

**Q.** For CCAGTTATGG, which switch fluorescence ratio is on record?
**A.** 0.999 ± 0.068

**Q.** With TACTGGGGCG as the sequence, how does the switch fluorescence ratio read?
**A.** 0.997 ± 0.082

**Q.** With TAAAACGGGG as the sequence, how does the switch fluorescence ratio read?
**A.** 1.02 ± 0.074

**Q.** For GGGCCTTGAG, which switch fluorescence ratio is on record?
**A.** 1.031 ± 0.008

**Q.** With CGGGTAAATA as the sequence, how does the switch fluorescence ratio read?
**A.** 1.011 ± 0.0084

**Q.** How did the switch fluorescence ratio turn out when CGGGTCGGGA was run?
**A.** 0.995 ± 0.041

**Q.** How did the switch fluorescence ratio turn out when GCGGAGTCGG was run?
**A.** 0.996 ± 0.053

**Q.** How did the switch fluorescence ratio turn out when TACGGGGCGG was run?
**A.** 1.36 ± 0.64

**Q.** For CCCGGACGGT, which switch fluorescence ratio is on record?
**A.** 1 ± 0.025

**Q.** With GTGTTTAAGC as the sequence, how does the switch fluorescence ratio read?
**A.** 0.978 ± 0.012

**Q.** How did the switch fluorescence ratio turn out when TAGTTGATTC was run?
**A.** 1.01 ± 0.067

**Q.** Which switch fluorescence ratio does the source give for GTTTGAGCAC here?
**A.** 1.02 ± 0.023

**Q.** How did the switch fluorescence ratio turn out when CCAAGGAGTC was run?
**A.** 0.992 ± 0.024

**Q.** CGAGGCGGAG was tested. Which switch fluorescence ratio did it give?
**A.** 1.01 ± 0.028

**Q.** With AATATGTGAG as the sequence, how does the switch fluorescence ratio read?
**A.** 0.995 ± 0.028

**Q.** How did the switch fluorescence ratio turn out when GCGGTCACGG was run?
**A.** 0.9974 ± 0.0092

**Q.** How did the switch fluorescence ratio turn out when TTGCTGATGC was run?
**A.** 1.02 ± 0.039

**Q.** TGAGGGTCGG was tested. Which switch fluorescence ratio did it give?
**A.** 0.972 ± 0.041

**Q.** For GTTATATTTG, which switch fluorescence ratio is on record?
**A.** 0.997 ± 0.031
